Data as given in US20130052176, “APTAMER FOR NGF AND USE THEREOF” (SHIONOGI & CO., LTD, published 2013).

The binders below were run against T1, NGF (nerve growth factor) (human, UniProt P01138 P01138:122-241) (assay: cell_activity; neurite outgrowth, NGF 1.1 nM; SPR binding; blocks NGF-TrkA). Conditions: tags: amine-coupled to CM5 chip in SPR; soluble in cell assays; chain copies: 2.
Protocol: (§1) The neurite outgrowth inhibitory activity of the aptamer obtained in Example 1 was evaluated by using Neuroscreen-1 cell, which is a subclone of PC-12 cells.
(§2) The cells (2500 cells per well) were cultured for one day in an RPMI-1640 medium containing 2.5% horse serum and 1.25% fetal bovine serum in a 96 well flat-bottom plate coated with collagen type IV. […] Two days later, the cytoplasm and nuclei were stained using Cellomics Neurite Outgrowth Kit (manufactured by Thermo Scientific), and neurite length per cell was measured by Cellomics ArrayScan VTI (manufactured by Thermo Scientific). With the neurite length per cell obtained by the addition of NGF alone as inhibitory activity 0%, and that of the cell obtained by NGF free culture for 2 days as inhibitory activity 100%, the inhibitory activity of the aptamer was calculated from the neurite length per cell obtained by culturing with the addition of NGF and the aptamer in mixture. When the inhibitory activity was 0% or below, ‘0%’ is indicated.

T1 sequence (P01138 122-241, one chain of several): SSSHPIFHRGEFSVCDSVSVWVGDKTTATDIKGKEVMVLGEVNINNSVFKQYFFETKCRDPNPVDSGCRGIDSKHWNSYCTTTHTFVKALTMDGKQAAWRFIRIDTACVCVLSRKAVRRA

Row | Binder | IC50 [nM]
1 | aptamer ID 52 (ssRNA, 2'-F at all pyrimidines) RNA: GGGAGAACUUCGACCAGAAGUUUGAAAAAAACCCAAAUUAAAGUAUGUGCGCAUACA | 5.9
2 | aptamer ID 53 (ssRNA, 2'-F at all pyrimidines) RNA: GGGAGAACUUCGACCAGAGUCGAGAGCGAAAGAAACUCCCAAAUAUGUGCGCAUAC | 4.7
3 | aptamer ID 54 (ssRNA, 2'-F at all pyrimidines) RNA: GGGAGAACUUCGACCAGAAGAUUUGAAAAAAACCCAAAUUAAAGUAUGUGCGCAUACA | 3
4 | aptamer ID 2 (ssRNA, 2'-F at all pyrimidines) RNA: GGGAGAACUUCGACCAGAAGUUUGAAAGAAACCCAAAUUAAAGUGAAGUAUGUGCGCAUACAUUCCUCA | < 3
5 | aptamer ID 3 (ssRNA, 2'-F at all pyrimidines) RNA: GGGAGAACUUCGACCAGAAGUUUGAAAGAAACCCAAAUUAAAGGAACAGUAUGUGCGCAUACAUGGAUCCUCA | < 3
6 | aptamer ID 4 (ssRNA, 2'-F at all pyrimidines) RNA: GGGAGAACUUCGACCAGAAGUUUGAAAGAAACCCAAAUUAAAGUGAACAGUAUGUGCGCAUACUGGAUCCUCA | < 3
7 | aptamer ID 5 (ssRNA, 2'-F at all pyrimidines) RNA: GGGAGAACUUCGACCAGAAGUUUGAAAGAAACCCAAAUUAAAAACAGUAUGUGCGCAUACA | < 3
8 | aptamer ID 6 (ssRNA, 2'-F at all pyrimidines) RNA: GGGAGAACUUCGACCAGAAGUUUGAAAGAAACCCAAAAAAGUGAACAGUAUGUGCGCAUACA | < 3
9 | aptamer ID 7 (ssRNA, 2'-F at all pyrimidines) RNA: GGGAGAACUUCGACCAGAAGUUUGAAAGAAACCCAAAUUAAAGGAAGUAUGUGCGCAUACA | < 3
10 | aptamer ID 8 (ssRNA, 2'-F at all pyrimidines) RNA: GGGAGAACUUCGACCAGAAGUUUGAAAGAAACCCAAAUUAAAGUGAACAGAUGUGCGCAUCA | < 3
11 | aptamer ID 31 (ssRNA, 2'-F at all pyrimidines) RNA: GGGAGAACUUCGACCAGAAGUCGAUAACGAACAAAACUCCCAAAGGAAUAUAUGUGCGCAUACAUGGAU | < 3
12 | aptamer ID 33 (ssRNA, 2'-F at all pyrimidines) RNA: GGGAGAACUUCGACCAGAAGUCGAUAACGAACAAAACUCCCAAAGGAAUAUAUGUGCGCAUACAUGGAUCCU | < 3
13 | aptamer ID 34 (ssRNA, 2'-F at all pyrimidines) RNA: GGGAGAACUUCGACCAGAAGUCGAUAACGAACAAAACUCCCAAAGGAAUAUGUGCGCAUACA | < 3
14 | aptamer ID 35 (ssRNA, 2'-F at all pyrimidines) RNA: GGGAGAACUUCGACCAGAAGUCGAUAACGAACAAAACUCCCAAAGGUAUAUGUGCGCAUACA | < 3
15 | aptamer ID 36 (ssRNA, 2'-F at all pyrimidines) RNA: GGGAGAACUUCGACCAGAAGUCGAUAACGAACAAAACUCCCAAAAAUAUAUGUGCGCAUACA | < 3
16 | aptamer ID 37 (ssRNA, 2'-F at all pyrimidines) RNA: GGGAGAACUUCGACCAGAAGUCGAUAACGAACAAAACUCCCGGAAUAUAUGUGCGCAUACA | < 3
17 | aptamer ID 38 (ssRNA, 2'-F at all pyrimidines) RNA: GGGAGAACUUCGACCAGAAGUCGAUAACGAACAAAACUCCCAAAGGAAUAUAUGUGCGCAUAC | < 3

What follows are binders tested against T1, NGF (nerve growth factor) (assay: cell_activity; neurite outgrowth, NGF 1.1 nM; SPR binding; TF-1 IC50 <1.0 nM). Conditions: tags: amine-coupled to CM5 chip in SPR; soluble in cell assays; chain copies: 2.

Row | Binder | IC50 [nM]
18 | GGGAGACUCGCCAGAGUUGAAAGAAACCCAAAUAAGUGUGCGCAC (ssRNA, 2'-F pyrimidines; 2'-OMe at 36,38,40,42,44; other purines 2'-OH) [aptamer ID 26(6)] | < 1
19 | aptamer ID 20 (ssRNA, 2'-F at all pyrimidines) RNA: GGGAGAACUUCGCCAGAAGUUUGAAAGAAACCCAAAUAAAGUGUGCGCACA | 1
20 | GGGAGAACUUCGCCAGAAGUUUGAAAGAAACCCAAAUAAGUGUGCGCACA (ssRNA, 2'-F at all pyrimidines) [aptamer ID 23] | < 1
21 | GGGAGAACUUCGCCAGAAGUUUGAAAGAAACCCAAAUAAGUGUGCGCAC (ssRNA, 2'-F at all pyrimidines) [aptamer ID 24] | < 1
22 | GGGAGACUCGCCAGAGUUGAAAGAAACCCAAAUAAAGUGUGCGCACA (ssRNA, 2'-F at all pyrimidines) [aptamer ID 25] | < 1

What follows are binders tested against T1, NGF (nerve growth factor) (assay: cell_activity; neurite outgrowth, NGF 0.38 nM; not tested by SPR; TF-1 IC50 <0.1 nM). Conditions: tags:; soluble in cell assays; chain copies: 2.
Protocol: as §1, §2

Row | Binder | IC50 [nM]
23 | GGGAGACUCGCCAGAGUUGAAAGAAACCCAAAUAAGUGUGCGCAC (ssRNA, 2'-F pyrimidines; 2'-OMe purines except 2'-OH at 3,5,19-22,24,26; 5' PEG40GS2 (ssH linker); 3' idT) [aptamer ID 26(16)] | < 0.1

Each binder was assayed against T1, NGF (nerve growth factor) (assay: cell_activity; neurite outgrowth, NGF 1.1 nM; SPR binding). Conditions: tags: amine-coupled to CM5 chip in SPR; soluble in cell assays; chain copies: 2.
Protocol: as §1, §2

Row | Binder | IC50 [nM]
24 | aptamer ID 49 (ssRNA, 2'-F at all pyrimidines) RNA: GGGAGAACUUCGACCAGAAGUCGAUAACGAACAAAACUCCCAAUAUGUGCGCAUACA | 1.8
25 | aptamer ID 50 (ssRNA, 2'-F at all pyrimidines) RNA: GGGAGAACUUCGACCAGAGUCGAUAACGAACAAAACUCCCAAUAUGUGCGCAUAC | 2.6
26 | aptamer ID 51 (ssRNA, 2'-F at all pyrimidines) RNA: GGAGAACUUCGACCAGAGUCGAUAACGAACAAAACUCCAAAUAUGUGCGCAUAC | 2.7
27 | GGGAUAAAAAUAGAGUUUGATAAACACCUGUAUTAAAACCC (mixed, 5' cholesterol; 3' idT; 2'-F pyrimidines (except dT at 21,34) and a37,a38; 2'-OMe other purines except 2'-OH at 4,7,30) [aptamer ID 58] | 5.4
28 | GGGAUAAAAAUAGAGUUUGATAAACACCUGUAUUAAAACCC (mixed, 5' cholesterol; 3' idT; 2'-F pyrimidines (except dT at 21 and dC at 41) and a37,a38; 2'-OMe other purines except 2'-OH at 4,7,30) [aptamer ID 59] | 6.9
29 | aptamer ID 9 (ssRNA, 2'-F at all pyrimidines) RNA: GGGAGAACUUCGACCAGAAGUUUGAAAGAAACCCAAAUUAAAAAGAUGUGCGCAUCA | < 3
30 | aptamer ID 11 (ssRNA, 2'-F at all pyrimidines) RNA: GGGAGAACUUCGCCAGAAGUUUGAAAGAAACCCAAAUAAAAAGUAUGUGCGCAUACA | 1.5
31 | aptamer ID 12 (ssRNA, 2'-F at all pyrimidines) RNA: GGGAGAACUUCGCCAGAAGUUUGAAAGAAACCCAAAUUAAAAGUAUGUGCGCAUACA | 1.4
32 | aptamer ID 13 (ssRNA, 2'-F at all pyrimidines) RNA: GGGAGAACUUCGCCAGAAGUUUGAAAGAAACCCAAAUUAAAGUAUGUGCGCAUACA | 1.3
33 | aptamer ID 14 (ssRNA, 2'-F at all pyrimidines) RNA: GGGAGAACUUCGCCAGAAGUUUGAAAGAAACCCAAUUAAAAAGUAUGUGCGCAUACA | 1.2
34 | aptamer ID 15 (ssRNA, 2'-F at all pyrimidines) RNA: GGGAGAACUUCGCCAGAAGUUUGAAAGAAACCCAUUAAAAAGUAUGUGCGCAUACA | 1.9
35 | aptamer ID 16 (ssRNA, 2'-F at all pyrimidines) RNA: GGGAGAACUUCGCCAGAAGUUUGAAAGAAACCCAAAUUAAAAAGAUGUGCGCAUCA | 1.1
36 | aptamer ID 17 (ssRNA, 2'-F at all pyrimidines) RNA: GGGAGAACUUCGCCAGAAGUUUGAAAGAAACCCAAAUUAAAGAUGUGCGCAUCA | < 1
37 | aptamer ID 18 (ssRNA, 2'-F at all pyrimidines) RNA: GGGAGAACUUCGCCAGAAGUUUGAAAGAAACCCAAAUAAAGAUGUGCGCAUCA | < 10
38 | aptamer ID 39 (ssRNA, 2'-F at all pyrimidines) RNA: GGGAGAACUUCGACCAGAAGUCGAUAACGAACAAAACUCCCAAAGGAAAUGUGCGCAUACA | < 3
39 | aptamer ID 40 (ssRNA, 2'-F at all pyrimidines) RNA: GGGAGAACUUCGACCAGAAGUCGAUAACGAACAAAACUCCCAAAUAUAUGUGCGCAUACA | < 3
40 | aptamer ID 41 (ssRNA, 2'-F at all pyrimidines) RNA: GGGAGAACUUCGACCAGAAGUCGAUAACGAACAAAACUCCCAAAGGUAAUGUGCGCAUACA | < 3
41 | aptamer ID 42 (ssRNA, 2'-F at all pyrimidines) RNA: GGGAGAACUUCGACCAGAAGUCGAUAACGAACAAAACUCCCGGAAUAAUGUGCGCAUACA | < 3
42 | aptamer ID 44 (ssRNA, 2'-F at all pyrimidines) RNA: GGGAGAACUUCGACCAGAAGUCGAUAACGAACAAAACUCCCAAAGGAUGUGCGCAUACA | < 3
43 | aptamer ID 45 (ssRNA, 2'-F at all pyrimidines) RNA: GGGAGAACUUCGACCAGAAGUCGAUAACGAACAAAACUCCCAAAUAAUGUGCGCAUACA | < 3
44 | aptamer ID 46 (ssRNA, 2'-F at all pyrimidines) RNA: GGGAGAACUUCGACCAGAAGUCGAUAACGAACAAAACUCCCAAAUAUGUGCGCAUAC | 2.6
45 | aptamer ID 47 (ssRNA, 2'-F at all pyrimidines) RNA: GGGAGAACUUCGACCAGAGUCGAUAACGAACAAAACUCCCAAAUAUGUGCGCAUACA | 2.5
